Like-named read-outs stand apart in the source and are kept apart here. Marks after values point to notes of the source that are not given here.

Data set [1] can be described thus: Efficacy in clinical study: 6MWT distance and urine keratan sulfate (uKS). In kind it is in vivo, human. To be noted: 24-week treatment period, QOW and QW. How it is done:
The primary efficacy measure in the clinical study was the distance walked in a 6MWT, which provides a measure of endurance. Keratan sulfate, an rhGALNS substrate, was also measured in individuals' urine (uKS) to track the pharmacodynamic effect of treatment with elosulfase alfa. NAb titers detected with the functional NAb assay were plotted against the change from baseline to week 24 in 6MWT distance, and the percentage change in uKS from baseline. No association was observed between NAb titer and 6MWT (FIG. 11A) or NAb titer and uKS (FIG. 11B) in individuals dosed weekly or every 2 weeks.

For data set [2] the following is noted: cited from earlier work; for proportion of patients with NAb positivity: long-term extension study.
Data set [3] in a line: Elosulfase alfa pharmacokinetics in individuals with Morquio A syndrome. In kind it is in vivo, human. The following applies: QOW and QW cohorts, week 22 PK vs week 24 NAb titer. From the text:
Effect of NAb Titer on Elosulfase Alfa Pharmacokinetics: In order to further explore the association between NAbs and pharmacokinetics, NAb titers from the functional NAb assay were compared to total clearance (CL) of drug after intravenous administration and elimination half-life (t1/2). Increased NAb titers were associated with prolonged t1/2 in both the QOW and QW cohorts (FIG. 12A).
Antibodies that neutralize elosulfase alfa uptake through CI-M6PR may not exist at concentrations sufficient to prevent effective amounts of elosulfase alfa from reaching target tissues. Although NAbs that block uptake of drug are measureable in our cell-based NAb assay, this amount of NAbs may be insignificant relative to elosulfase alfa dose. This cell-based assay was designed to detect the lowest possible NAb concentrations, ideally prior to observed clinical effects. […] 53 (2014) 1137-1147]. […] 53 (2014) 1137-1147]. Although further investigation is needed, one aspect to the lack of neutralizing antibody effect on efficacy may be that rapid clearance of drug from plasma diminishes the rate of neutralizing antibody-elosulfase alfa complex formation. […] Scler. 15 (2009) 977-983].

Data set [4] in a line: NAb and TAb titers and positivity in individuals treated with elosulfase alfa (clinical study). Type of data set: in vivo, human. Here is the method:
Samples from a 24 week study of rhGALNS (elosulfase alfa) treatment were assessed for NAb at baseline and weeks 2, 4, 8, 12, 16, 20 and 24. rhGALNS was infused at 2.0 mg/kg body weight in two dosing cohorts, weekly and every other week (QOW). Positive samples (FIG. 2A) show comparatively low NAb titers [wk 24 mean 52 (range 0 to 1,098) in the weekly group and 130 (range 0 to 1,659) in the QOW group] relative to anti-rhGALNS total antibody (TAb) titers [wk 24 mean 167,737 (range 0 to 1.77×10^6) in the weekly group and 190,901 (range 810 to 1.77×10^6) in the QOW group] (FIG. 2B).
NAb titers and clinical outcomes To compare the functional NAb assay with the previously reported ELISA-based CI-M6PR binding assay for detecting NAb in elosulfase alfa-treated individuals with Morquio A syndrome [Schweighardt et al., supra], serum samples from the clinical trial were reanalyzed with the cell-based assay. Sufficient serum-sample volumes were available for the majority (842/847 [99%]) of serum sample collection time points to obtain confirmed positive/negative results. The overall concordance was high (89%) between NAb positivity in the receptor binding assay and the cell-based assay. Furthermore, the concordance was consistent over the 24-week treatment period (FIG. 9A).
TAb titers detected using the CI-M6PR binding assay reported previously [Schweighardt et al., supra] were compared to the time course for NAb titer development detected with the functional NAb assay (FIG. 9B). Titers of both TAbs and NAbs increased rapidly during the first 8 weeks of treatment then plateaued from week 8 to week 24 in both the QOW and QW treatment groups (FIG. 9B). Although the frequency of drug administration had minimal effect on TAb and NAb titers at week 24, the QW treatment group appeared to have higher titers of both TAbs and NAbs in the initial 4 weeks of treatment. Subjects in both the QOW and QW treatment groups developed different NAb titer courses over 24 weeks.

The conditions of data set [5]: after 22 weeks, cited from earlier work; for half-life (t1/2): plasma.
Data set [6] relates to Jurkat cells. As to the kind of experiment: Cell-based flow cytometry assay of Alexa488-rhGALNS uptake (screening assay, % SI). The arrangement: species or system human. The following applies: for NHPS (% SI): no AbPC; for MFI: Alexa488-rhGALNS 0.4 μg/mL, 20% pooled human serum. How it is done:
Cell uptake of rhGALNS is measured using flow cytometry to determine the amount of fluorophore-conjugated rhGALNS taken up by Jurkat cells. Jurkat cells are a non-adherent human T cell line that express CI-MPR, which binds and targets rhGALNS to the lysosome. rhGALNS neutralizing antibodies (NAb) are detected in samples by a decrease in fluorophore-conjugated rhGALNS uptake (calculated as % inhibition) that exceeds the screening cut point (SCP).
For a 1:1 dilution, 60 μL per well of controls were added in duplicate or in quadruplicate for 2 sets into the appropriate wells. Similarly, for a 1:1 dilution of sample, 60 μL per well of patient screening samples were added into the appropriate wells. For a 1:1 dilution for the confirmation assay, 60 μL per well of patient confirmation samples were added in duplicate into the corresponding wells. The plate was covered, wrapped in foil and allowed to incubate overnight for 14 to 20 hours at 2-8° C.
Assay: Prior to the sample incubation step, the cell plates were removed from the CO2 incubator and observed to ensure the cells were healthy and viable. […] After the incubation was completed, the cells were washed in PBS by centrifuging the plate for 6 min at 310×g in a tabletop centrifuge at 14 to 18° C., repeated two to five times as appropriate. After the last wash, the plate was removed from the centrifuge, the cell pellet resuspended in 100 μL viability stain (red fluorescent reactive dye 1:1000 dilution) and tested for viability. Once viability testing was complete, the cells were centrifuged 6 min at 310×g in a tabletop centrifuge at 14 to 18° C.
Percent Signal Inhibition (% SI) is calculated as [% SI=1—mean median fluorescence intensity (MFI) of sample/mean MFI of control×100]. Confirmatory assay data were analyzed as recovery ratio, defined as mean confirmatory assay MFI of sample/mean screening assay MFI of sample. The titer was calculated as the interpolated dilution factor at which the sample crossed the titer cut point determined by linear regression analysis (Microsoft Excel).
(In general: A flow cytometer gives signals particle by particle.)

The subject of data set [7] is Jurkat cells. As to the kind of experiment: Confocal imaging of Alexa488-rhGALNS internalization and trafficking to lysosomes. In kind it is cell-based, human. The following applies: LysoTracker Red. Here is the method:
Confocal Imaging: Internalization of Alexa488-rhGALNS and trafficking to lysosomes was confirmed by confocal microscopy by incubating cells from the functional NAb assay described in section 2.3 with 50 nM LysoTracker Red (Molecular Probes) at 37° C. for 1 h. Cells were then washed with serum-free RPMI-1640 and mounted with Prolong Gold Antifade Mountant with DAPI (Molecular Probes), sealed, and visualized using a Leica SP8 confocal microscope (Leica Microsystems). Confocal Z-stacks were acquired using a 63× Plan-Apo objective with 4× zoom and LASX software (Leica Microsystems). Z-stacks were rendered in 3-D and exported using Volocity software version 6.3 (PerkinElmer).

B1: Recombinant human N-acetylgalactosamine-6-sulfatase (protein, UniProt P34059 27-522, looked up)
N-acetylgalactosamine-6-sulfat …: APQPPNILLLLMDDMGWGDLGVYGEPSRETPNLDRMAAEGLLFPNFYSANPLCSPSRAALLTGRLPIRNGFYTTNAHARNAYTPQEIVGGIPDSEQLLPELLKKAGYVSKIVGKWHLGHRPQFHPLKHGFDEWFGSPNCHFGPYDNKARPNIPVYRDWEMVGRYYEEFPINLKTGEANLTQIYLQEALDFIKRQARHHPFFLYWAVDATHAPVYASKPFLGTSQRGRYGDAVREIDDSIGKILELLQDLHVADNTFVFFTSDNGAALISAPEQGGSNGPFLCGKQTTFEGGMREPALAWWPGHVTAGQVSHQLGSIMDLFTTSLALAGLTPPSDRAIDGLNLLPTLLQGRLMDRPIFYYRGDTLMAATLGQHKAHFWTWTNSWENFRQGIDFCPGQNVSGVTTHNLEDHTKLPLIFHLGRDPGERFPLSFASAEYQEALSRITSVVQQHQEALVPAQPQLNVCNWAVMNWAPPGCEKLGKCLTPPESIPKKCLWSH
notes: enzyme replacement therapy (elosulfase alfa) for the treatment of MPS IVA
In the case of B1, the “impact of NAb titers on efficacy (6MWT, uKS)” value in data set [1] is reported as “no detrimental impact”. For the same molecule, the “development of drug-specific total antibodies (TAb)” value in data set [2] (clinical study, treated individuals) is on record as “all individuals”. The “proportion of patients with NAb positivity” value in data set [2] (week 36) is 85.9%; in data set [2] (week 120) it was 66.0%. The “CL with increased NAb titers (trend)” value in data set [3] was “decreased”. Besides, the “t1/2 with increased NAb titers” value in data set [3] is on record as “prolonged”. Also, the “mean NAb titer” value in data set [4] (at 12 weeks) stood at 118±271. The “NAb titer, mean” value in data set [4] (wk 24, 2.0 mg/kg QOW group) was found to be 130; in data set [4] (wk 24, 2.0 mg/kg weekly group) it was 52. Moreover, the “anti-rhGALNS total antibody (TAb) titer, mean” value in data set [4] (wk 24, 2.0 mg/kg QOW group) is 190,901; in data set [4] (wk 24, 2.0 mg/kg weekly group), 167,737. The “half-life (t1/2)” value is 19 min in data set [5] (2.0 mg/kg QOW) and 36 min in data set [5] (2.0 mg/kg QW). Also, the “plasma Cmax” value in data set [5] (2.0 mg/kg QOW) is 2600 ng/mL; in data set [5] (2.0 mg/kg QW) it was 4000 ng/mL. Also, in data set [6] (NPS without AbPC), the “concentration of unlabeled rhGALNS that reduced Alexa488-rhGALNS uptake” value is no less than 0.22 µg/mL. The “rhGALNS concentration the assay can tolerate before interference with Alexa488-rhGALNS uptake” value in data set [6] (drug tolerance) is on record as “up to 0.22 μg/mL”. The “highest neat concentration of rhGALNS at which the low and high PC-spiked samples screened positive” value in data set [6] (highest concentration tested) stood at 2.00 µg/mL. Moreover, the “NHPS (% SI)” value in data set [6] (unlabeled elosulfase alfa 0.0027 μg/mL) is on record as −10.84 % SI; in data set [6] (unlabeled elosulfase alfa 0.008 μg/mL), 3.79 % SI; in data set [6] (unlabeled elosulfase alfa 0.025 μg/mL), −7.21 % SI; in data set [6] (unlabeled elosulfase alfa 0.074 μg/mL), −5.58 % SI; in data set [6] (unlabeled elosulfase alfa 0.22 μg/mL) it was 8.00 % SI; in data set [6] (unlabeled elosulfase alfa 0.67 μg/mL) it was 26.94* % SI. The “NHPS (% SI)” value in data set [6] (unlabeled elosulfase alfa 2.00 μg/mL) was 55.42* % SI.

B2: Alexa488-rhGALNS (conjugate, UniProt P34059 27-522, looked up)
N-acetylgalactosamine-6-sulfat …: APQPPNILLLLMDDMGWGDLGVYGEPSRETPNLDRMAAEGLLFPNFYSANPLCSPSRAALLTGRLPIRNGFYTTNAHARNAYTPQEIVGGIPDSEQLLPELLKKAGYVSKIVGKWHLGHRPQFHPLKHGFDEWFGSPNCHFGPYDNKARPNIPVYRDWEMVGRYYEEFPINLKTGEANLTQIYLQEALDFIKRQARHHPFFLYWAVDATHAPVYASKPFLGTSQRGRYGDAVREIDDSIGKILELLQDLHVADNTFVFFTSDNGAALISAPEQGGSNGPFLCGKQTTFEGGMREPALAWWPGHVTAGQVSHQLGSIMDLFTTSLALAGLTPPSDRAIDGLNLLPTLLQGRLMDRPIFYYRGDTLMAATLGQHKAHFWTWTNSWENFRQGIDFCPGQNVSGVTTHNLEDHTKLPLIFHLGRDPGERFPLSFASAEYQEALSRITSVVQQHQEALVPAQPQLNVCNWAVMNWAPPGCEKLGKCLTPPESIPKKCLWSH
modifications: Alexa488 label
Turning to B2, the results for the MFI in data set [6] (cells incubated at 4° C.) and in data set [6] (cells incubated at 37° C.) were 92.9±1.50 and 4425±98.6, respectively. Besides, the Kuptake in data set [6] (Hanes-Woolf plot linear regression, dose-response 0 to 363.6 nM) is 46.3 nM; in data set [6] (Jurkat T cells, 4 hours incubation at 37° C.), “approximately 5 μg/mL”. Also, the “localization by confocal imaging” value in data set [7] is reported as “co-localized with lysosomes”.

The values are drawn from patent US11262348B2, “Cell-based assays for detection of antibodies or other factors that neutralize uptake of lysosomal enzymes” (BIOMARIN PHARMACEUTICAL INC., priority 2015, dated 2022).
